B1: 14-3-3 protein sigma (Homo sapiens), P31947 (parent)
chain: MERASLIQKAKLAEQAERYEDMAAFMKGAVEKGEELSCEERNLLSVAYKNVVGGQRAAWRVLSSIEQKSNEEGSEEKGPEVREYREKVETELQGVCDTVLGLLDSHLIKEAGDAESRVFYLKMKGDYYRYLAEVATGDDKKRIIDSARSAYQEAMDISKKEMPPTNPIRLGLALNFSVFHYEIANSPEEAISLAKTTFDEAMADLHTLSEDSYKDSTLIMQLLRDNLTLWTADNAGEEGGEAPQEPQS
partner: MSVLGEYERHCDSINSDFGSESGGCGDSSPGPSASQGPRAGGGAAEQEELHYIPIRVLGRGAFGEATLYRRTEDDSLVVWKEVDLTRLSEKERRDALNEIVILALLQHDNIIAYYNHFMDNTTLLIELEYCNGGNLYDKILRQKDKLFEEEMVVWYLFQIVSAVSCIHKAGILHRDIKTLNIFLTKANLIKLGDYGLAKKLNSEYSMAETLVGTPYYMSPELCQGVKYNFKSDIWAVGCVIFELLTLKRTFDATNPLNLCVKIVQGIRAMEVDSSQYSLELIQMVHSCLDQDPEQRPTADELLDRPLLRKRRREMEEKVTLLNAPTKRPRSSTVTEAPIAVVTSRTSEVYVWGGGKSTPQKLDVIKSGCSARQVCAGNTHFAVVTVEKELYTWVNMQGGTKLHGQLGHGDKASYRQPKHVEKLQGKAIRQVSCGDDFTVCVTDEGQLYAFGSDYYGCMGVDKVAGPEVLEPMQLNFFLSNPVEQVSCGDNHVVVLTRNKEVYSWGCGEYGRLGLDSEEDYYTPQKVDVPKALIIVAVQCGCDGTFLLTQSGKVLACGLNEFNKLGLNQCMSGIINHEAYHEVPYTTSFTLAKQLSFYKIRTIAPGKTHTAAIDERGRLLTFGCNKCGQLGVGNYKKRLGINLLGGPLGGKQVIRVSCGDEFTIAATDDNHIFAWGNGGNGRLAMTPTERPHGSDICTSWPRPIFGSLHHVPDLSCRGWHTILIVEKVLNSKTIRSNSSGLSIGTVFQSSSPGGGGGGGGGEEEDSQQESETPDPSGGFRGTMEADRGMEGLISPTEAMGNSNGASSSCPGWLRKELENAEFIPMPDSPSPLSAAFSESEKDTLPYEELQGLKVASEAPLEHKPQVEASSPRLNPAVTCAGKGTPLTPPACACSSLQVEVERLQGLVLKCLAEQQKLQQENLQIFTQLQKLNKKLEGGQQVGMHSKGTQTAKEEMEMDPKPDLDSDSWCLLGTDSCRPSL
B2: 14-3-3 protein sigma (Homo sapiens), P31947 (parent)
chain: B1 chain
partner: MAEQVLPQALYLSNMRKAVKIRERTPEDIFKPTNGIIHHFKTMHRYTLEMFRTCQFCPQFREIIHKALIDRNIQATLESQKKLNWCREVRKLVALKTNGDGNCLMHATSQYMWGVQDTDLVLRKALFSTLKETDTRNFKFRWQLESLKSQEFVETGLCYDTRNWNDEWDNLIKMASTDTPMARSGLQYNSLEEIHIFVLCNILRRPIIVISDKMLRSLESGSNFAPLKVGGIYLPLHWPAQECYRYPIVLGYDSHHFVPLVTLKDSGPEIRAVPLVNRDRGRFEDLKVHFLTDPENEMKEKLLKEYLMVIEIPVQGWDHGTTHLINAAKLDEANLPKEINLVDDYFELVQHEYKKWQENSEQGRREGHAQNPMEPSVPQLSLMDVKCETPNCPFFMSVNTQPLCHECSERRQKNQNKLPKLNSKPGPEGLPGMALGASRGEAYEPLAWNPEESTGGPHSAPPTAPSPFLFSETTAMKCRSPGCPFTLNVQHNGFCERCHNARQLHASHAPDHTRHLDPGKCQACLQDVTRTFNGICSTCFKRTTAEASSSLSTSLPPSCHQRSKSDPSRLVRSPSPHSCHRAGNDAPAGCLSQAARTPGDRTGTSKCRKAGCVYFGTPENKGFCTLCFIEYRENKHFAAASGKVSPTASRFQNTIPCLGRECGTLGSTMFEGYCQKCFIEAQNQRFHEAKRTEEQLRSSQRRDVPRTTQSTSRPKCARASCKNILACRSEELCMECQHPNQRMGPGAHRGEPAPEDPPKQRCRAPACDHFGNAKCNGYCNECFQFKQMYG
B3: 14-3-3 protein sigma (Homo sapiens), P31947 (parent)
chain: B1 chain
partner: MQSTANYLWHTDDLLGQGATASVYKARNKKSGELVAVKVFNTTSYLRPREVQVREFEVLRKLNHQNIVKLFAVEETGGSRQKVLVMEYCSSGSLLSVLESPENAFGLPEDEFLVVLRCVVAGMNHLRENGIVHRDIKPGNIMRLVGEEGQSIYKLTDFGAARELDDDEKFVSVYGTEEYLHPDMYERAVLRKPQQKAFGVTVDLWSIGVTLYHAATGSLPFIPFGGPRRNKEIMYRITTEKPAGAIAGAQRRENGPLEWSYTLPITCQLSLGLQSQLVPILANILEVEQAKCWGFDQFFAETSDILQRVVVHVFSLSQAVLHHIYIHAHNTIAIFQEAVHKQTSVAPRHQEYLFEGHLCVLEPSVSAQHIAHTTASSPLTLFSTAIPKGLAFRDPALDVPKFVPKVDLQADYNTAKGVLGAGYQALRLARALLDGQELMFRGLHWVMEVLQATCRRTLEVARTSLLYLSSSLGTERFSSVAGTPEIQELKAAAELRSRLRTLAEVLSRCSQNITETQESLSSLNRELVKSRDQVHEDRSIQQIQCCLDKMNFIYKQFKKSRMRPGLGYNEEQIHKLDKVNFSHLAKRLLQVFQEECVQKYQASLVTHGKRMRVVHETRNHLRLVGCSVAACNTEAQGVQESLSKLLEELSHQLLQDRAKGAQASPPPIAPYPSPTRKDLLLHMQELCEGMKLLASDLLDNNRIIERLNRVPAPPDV
B4: Serine/threonine-protein kinase PAK 5 (Homo sapiens), Q9P286 (parent)
chain: MFGKKKKKIEISGPSNFEHRVHTGFDPQEQKFTGLPQQWHSLLADTANRPKPMVDPSCITPIQLAPMKTIVRGNKPCKETSINGLLEDFDNISVTRSNSLRKESPPTPDQGASSHGPGHAEENGFITFSQYSSESDTTADYTTEKYREKSLYGDDLDPYYRGSHAAKQNGHVMKMKHGEAYYSEVKPLKSDFARFSADYHSHLDSLSKPSEYSDLKWEYQRASSSSPLDYSFQFTPSRTAGTSGCSKESLAYSESEWGPSLDDYDRRPKSSYLNQTSPQPTMRQRSRSGSGLQEPMMPFGASAFKTHPQGHSYNSYTYPRLSEPTMCIPKVDYDRAQMVLSPPLSGSDTYPRGPAKLPQSQSKSGYSSSSHQYPSGYHKATLYHHPSLQSSSQYISTASYLSSLSLSSSTYPPPSWGSSSDQQPSRVSHEQFRAALQLVVSPGDPREYLANFIKIGEGSTGIVCIATEKHTGKQVAVKKMDLRKQQRRELLFNEVVIMRDYHHDNVVDMYSSYLVGDELWVVMEFLEGGALTDIVTHTRMNEEQIATVCLSVLRALSYLHNQGVIHRDIKSDSILLTSDGRIKLSDFGFCAQVSKEVPKRKSLVGTPYWMAPEVISRLPYGTEVDIWSLGIMVIEMIDGEPPYFNEPPLQAMRRIRDSLPPRVKDLHKVSSVLRGFLDLMLVREPSQRATAQELLGHPFLKLAGPPSCIVPLMRQYRHH
partner: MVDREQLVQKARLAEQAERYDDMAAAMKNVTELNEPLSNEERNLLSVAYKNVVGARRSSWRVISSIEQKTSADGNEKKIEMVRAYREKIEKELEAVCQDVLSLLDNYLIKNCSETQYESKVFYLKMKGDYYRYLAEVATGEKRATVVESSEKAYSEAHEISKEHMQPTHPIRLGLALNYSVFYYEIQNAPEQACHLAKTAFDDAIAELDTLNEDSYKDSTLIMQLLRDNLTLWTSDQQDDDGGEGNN
B5: 14-3-3 protein sigma (Homo sapiens), P31947 (parent)
chain: B1 chain
partner: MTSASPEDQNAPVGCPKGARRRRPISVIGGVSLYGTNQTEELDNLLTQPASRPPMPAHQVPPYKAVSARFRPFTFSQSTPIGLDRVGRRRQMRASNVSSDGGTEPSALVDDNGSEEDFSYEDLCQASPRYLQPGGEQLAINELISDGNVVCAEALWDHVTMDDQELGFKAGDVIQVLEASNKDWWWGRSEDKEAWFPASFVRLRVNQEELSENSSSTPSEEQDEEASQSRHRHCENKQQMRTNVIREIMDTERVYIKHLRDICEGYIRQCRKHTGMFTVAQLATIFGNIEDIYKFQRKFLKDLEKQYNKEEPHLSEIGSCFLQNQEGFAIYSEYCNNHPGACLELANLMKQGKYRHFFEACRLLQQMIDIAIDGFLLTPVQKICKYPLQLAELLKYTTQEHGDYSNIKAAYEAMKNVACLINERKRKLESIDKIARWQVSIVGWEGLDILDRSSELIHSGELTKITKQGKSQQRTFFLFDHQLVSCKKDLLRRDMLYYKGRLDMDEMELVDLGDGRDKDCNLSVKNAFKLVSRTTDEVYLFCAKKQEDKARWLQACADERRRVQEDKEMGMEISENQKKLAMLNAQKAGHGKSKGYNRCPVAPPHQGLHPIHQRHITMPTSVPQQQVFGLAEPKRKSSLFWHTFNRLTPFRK
B6: 14-3-3 protein sigma (Homo sapiens), P31947 (parent)
chain: B1 chain
partner: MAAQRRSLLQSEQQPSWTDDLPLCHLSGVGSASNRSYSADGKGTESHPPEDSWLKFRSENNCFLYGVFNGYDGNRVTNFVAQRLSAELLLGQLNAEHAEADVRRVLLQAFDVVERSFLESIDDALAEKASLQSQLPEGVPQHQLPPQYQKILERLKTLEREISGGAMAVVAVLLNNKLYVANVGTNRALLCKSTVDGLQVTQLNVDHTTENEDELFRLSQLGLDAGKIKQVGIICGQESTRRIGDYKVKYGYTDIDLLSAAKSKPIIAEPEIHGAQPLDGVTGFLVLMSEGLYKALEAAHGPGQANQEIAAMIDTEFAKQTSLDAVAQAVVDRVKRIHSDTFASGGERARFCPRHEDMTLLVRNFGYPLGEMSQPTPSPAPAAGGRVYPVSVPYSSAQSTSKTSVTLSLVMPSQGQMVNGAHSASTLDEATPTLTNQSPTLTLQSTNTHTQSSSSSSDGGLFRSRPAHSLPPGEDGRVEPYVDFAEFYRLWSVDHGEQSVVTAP

Variants of: B1
Conditions: with nek9_human NEK9, Q8TD19

Variant | effect of a mutation on the interaction
K49E;R56E;V178D | decreasing interaction strength

Variants of: B2
Conditions: with tnap3_human TNFAIP3, P21580

Variant | effect of a mutation on the interaction
K49E;R56E;V178D | decreasing interaction strength

Variants of: B3
Conditions: with ikke_human IKBKE

Variant | effect of a mutation on the interaction
K49E;R56E;V178D | decreasing interaction strength

Variants of: B4
Conditions: with 1433g_human YWHAG

Variant | effect of a mutation on the interaction
S99A;S270A;S290A;T317A;T349A | decreasing interaction strength

Variants of: B5
Conditions: with spt13_human SPATA13, Q96N96

Variant | effect of a mutation on the interaction
K49E;R56E;V178D | decreasing interaction strength

Variants of: B6
Conditions: with tab1_human TAB1, Q15750

Variant | effect of a mutation on the interaction
K49E;R56E;V178D | decreasing interaction strength

— IntAct's records for PubMed 36931259
